Target: Serum Resistance-Associated protein with C-terminal S tag
Test: pull-down (sup/bound fractions, western blot with α-S tag), quantified
Conditions: read off a plot

Apolipoprotein L-I, wild type, with C-terminal V5-His6 tag (from UniProt O14791-1) N386T; N387K; N388I; Y389Q
percent of parent (parent: est. 100): 5.5 % binding

apoL1 truncated mutant NNNY (9 C-terminal amino acids removed, human last four residues NNNY), C-terminal V5-His6 tag (from UniProt O14791-1) N386T; N387K; N388I; Y389Q
response (parent: est. 9): 9.5 % binding

— article PMC2778949
